Data reported in patent US10703820B2, “Methods and compositions for reducing cardiac damage and other conditions” (Tufts Medical Center, Inc., priority 2013, dated 2020).
Marks after values point to notes of the source that are not given here.

How the values were obtained:
[1] = target: T1, endoglin (Mus musculus, UniProt Q63961); assay: Chronic moderate RVPO (PAC), antibody given from week 3 to week 6
T1 sequence (Q63961 27-653): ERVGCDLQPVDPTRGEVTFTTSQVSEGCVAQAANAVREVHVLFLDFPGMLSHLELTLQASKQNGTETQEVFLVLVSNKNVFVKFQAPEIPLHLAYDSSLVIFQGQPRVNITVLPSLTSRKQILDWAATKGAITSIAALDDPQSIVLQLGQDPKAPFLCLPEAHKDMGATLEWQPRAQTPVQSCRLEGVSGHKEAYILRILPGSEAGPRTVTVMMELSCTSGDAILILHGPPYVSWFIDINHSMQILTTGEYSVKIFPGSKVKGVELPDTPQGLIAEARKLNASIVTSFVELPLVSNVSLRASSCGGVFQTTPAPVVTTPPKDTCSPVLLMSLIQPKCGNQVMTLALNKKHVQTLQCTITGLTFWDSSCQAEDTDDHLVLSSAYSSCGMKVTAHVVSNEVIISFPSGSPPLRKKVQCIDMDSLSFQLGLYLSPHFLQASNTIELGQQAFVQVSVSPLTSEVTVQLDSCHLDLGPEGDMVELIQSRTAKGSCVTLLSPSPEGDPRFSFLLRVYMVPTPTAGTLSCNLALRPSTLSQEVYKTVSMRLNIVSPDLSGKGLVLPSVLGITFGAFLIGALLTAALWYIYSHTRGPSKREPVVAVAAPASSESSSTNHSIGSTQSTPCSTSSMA
Description: (§2) Specifically, mice were intubated using a 24G angiocath and mechanically ventilated (Harvard Apparatus) at 95 breaths per minute with a tidal volume of 0.3 mL with 2.0-2.5% Isoflurane and 100% flow-through oxygen. Depth of anesthesia was monitored by assessing palpebral reflex, toe pinch, respirations, and general response to touch. Using sterile technique, a left thoracotomy was performed to isolate and encircle the main pulmonary artery using a 7-0 nylon suture that is then tied tightly around a pre-sterilized, blunt end needle. After de-airing, the thorax is closed with layered 6-0 Dexon sutures to eliminate the risk of pneumothorax. Post-operative analgesia is immediately provided with subcutaneous buprenorphine 0.1 mL, which is continued twice daily and as needed for an additional 72 hours. Severe RVPO was induced by PAC with a 25G needle for 7 days in WT and Eng+/− mice. To investigate the role of endoglin in RVPO, WT mice received 15 mg/kg of either a neutralizing antibody to endoglin (N-Eng Ab; TRC105; Tracon Pharma) or an IgG1 control antibody (IgG Ab; R&D Systems) via single intraperitoneal injection 1 day prior to and 3 days after induction of severe RVPO. To study the effect of blocking endoglin activity after induction of RVPO, WT mice were randomized to receive biweekly IP injections for three weeks of 15 mg/kg N-Eng Ab or IgG control Ab beginning three weeks after induction of moderate RVPO using a 23G needle for PAC. […] After 7 days of severe PAC or 3 to 6 weeks of moderate RVPO, mice underwent hemodynamic analysis with a RV conductance catheter (Millar Inc) as previously described in Kapur et al., PLoS ONE. […] Briefly, mice were anesthetized with 2.0% isoflurane administered via a non-invasive nose-cone. Body temperature was monitored by a rectal thermistor probe and maintained at 37.5° C. with heating pads and a cycling heat lamp. In the supine position, the right external jugular vein was surgically isolated. A conductance catheter was advanced into the right ventricle for pressure-volume loop acquisition as described in Kapur et al., PLoS ONE. […] After completion of the hemodynamic study, with the animal still under isoflurane anesthesia, the chest was rapidly opened, and the mouse was euthanized by arresting the heart in diastole with 0.3 mL of 1N KCL injected directly into the left ventricle. The heart was then removed and processed for either biochemical or histologic analyses.
(§3) All animals underwent terminal hemodynamic evaluation. Right heart catheterization was performed at the time of sacrifice in all animals. Mice were anesthetized with 2.0% isoflurane administered by a noninvasive nose cone. Body temperature was monitored by a rectal thermistor probe and maintained at 37.5° C. with heating pads and a cycling heat lamp. In the supine position, the right common carotid and right external jugular vein were surgically isolated. Silk ties were placed at the distal ends of both vessels while overhand loops were placed at the proximal ends with 7-0 nylon. A Millar PVR-1035 (Millar Instruments) mouse conductance catheter was used for RV recordings.

[2] = test system: endoglin; assay: TGFβ1 stimulation of right ventricular fibroblasts (RVFB) pretreated with N-Eng Ab; assay type: cell-based, mouse and human; settings: N-Eng Ab 10, 50, 100 μg/mL, TGFβ1 10 ng/mL
Description: (§1) 115:67-75, 2007 and Neuss et al., Cell Tissue Res. 286:145-153, 1996. For neutralizing antibody studies in vitro, mouse cardiac fibroblasts were pretreated with 10, 50, or 100 ug/mL of either a N-Eng Ab or control IgG Ab for 24 hours in fibroblast basal medium without supplementation prior to stimulation with TGFβ1 (10 ng/mL). After 24 hours, cells were harvested for analysis. […] 7:e5-920, 2012.

[3] = target: T1, endoglin; assay: Severe RVPO induced by PAC for 7 days in wild-type mice pre-treated with N-Eng Ab
Description: as §2, §3

[4] = target: T2, endoglin (Homo sapiens, UniProt P17813); assay: TGFβ1 stimulation of left ventricular fibroblasts (LVFB) pretreated with N-Eng Ab; assay type: cell-based, mouse and human; settings: N-Eng Ab 10, 50, 100 μg/mL, TGFβ1 10 ng/mL
T2 construct: endogenous in cells; host or cells: primary right and left ventricular cardiac fibroblasts (mouse and/or human)
T2 sequence (P17813 26-658): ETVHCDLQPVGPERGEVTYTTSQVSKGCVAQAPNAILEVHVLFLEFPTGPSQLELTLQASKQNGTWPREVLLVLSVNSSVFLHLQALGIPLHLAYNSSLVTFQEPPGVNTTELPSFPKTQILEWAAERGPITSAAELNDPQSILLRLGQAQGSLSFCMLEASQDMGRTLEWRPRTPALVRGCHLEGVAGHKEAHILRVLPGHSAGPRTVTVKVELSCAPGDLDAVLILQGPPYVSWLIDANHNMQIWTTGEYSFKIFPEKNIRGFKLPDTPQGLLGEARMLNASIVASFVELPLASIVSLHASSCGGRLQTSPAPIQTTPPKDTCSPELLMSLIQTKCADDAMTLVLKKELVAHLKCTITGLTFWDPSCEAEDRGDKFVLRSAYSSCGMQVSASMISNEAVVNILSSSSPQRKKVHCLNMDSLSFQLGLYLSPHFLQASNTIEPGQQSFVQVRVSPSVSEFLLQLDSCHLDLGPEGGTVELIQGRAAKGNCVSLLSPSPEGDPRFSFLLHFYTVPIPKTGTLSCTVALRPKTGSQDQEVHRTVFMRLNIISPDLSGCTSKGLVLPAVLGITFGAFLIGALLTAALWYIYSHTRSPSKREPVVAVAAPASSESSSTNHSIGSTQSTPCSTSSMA
Description: as §1

[5] = 6 weeks moderate RVPO, antibody for the last 3 weeks
[6] = moderate PAC 6 weeks, N-Eng Ab 15 mg/kg IP biweekly for the last 3 weeks
[7] = Sham, wild-type mice + N-Eng Ab 15 mg/kg IP
[8] = after severe RVPO, compared to the IgG group
[9] = severe PAC 7 days, N-Eng Ab 15 mg/kg IP 1 day prior and 3 days after

In the case of “N-Eng Ab: neutralizing IgG1 antibody that binds human and mouse endoglin (TRC105), provided by Tracon Pharmaceuticals”, the Calcineurin protein expression [1, 5] is reported as “reduced”, the RV fibrosis [1, 5] is reported as “significantly reduced” and the “Type I collagen protein expression” value [1, 5] is reported as “reduced”. For the same substance, the RV fibrosis ([1]; 6 weeks moderate RVPO, antibody for the last 3 weeks, listed as TRC105) was “reduced RV fibrosis”, the Cardiac output [1, 6] was 1.4 ± 0.6 mL/min and the Heart rate [1, 6] was 550 ± 52 beats per min. The LV weight/tibial length [1, 6] was 4.5 ± 0.2 g/mm, the “RV +dp/dt” value [1, 6] was 4072 ± 875 mm Hg/sec and the RV end-diastolic pressure [1, 6] was 2 ± 1 mm Hg. It also gave an RV stroke volume [1, 6] of 3 ± 2 µL, an RV systolic pressure [1, 6] of 69 ± 14 mm Hg and an RV weight/tibial length [1, 6] of 2.5 ± 0.4 g/mm. For the same substance, the “RV −dp/dt” value [1, 6] was 3916 ± 875 mm Hg/sec, the Total body weight [1, 6] was 27 ± 2 g and the Mortality ([1]; moderate RVPO, any time point) was “No mortality was observed”. The “TGFβ1 induced calcineurin protein expression” value [2] was “inhibited”, the “TGFβ1 induced protein levels of pERK-1/2” value [2] was “inhibited” and the “TGFβ1 induced protein levels of pSmad-3” value [2] was “inhibited”. The “TGFβ1 induced α-SMA protein expression” value [2] was “inhibited”, the “TGFβ1 induced calcineurin protein expression” value ([2]; listed as TRC105) was “attenuated” and the Cardiac output [3, 7] was 4.0 ± 1 mL/min. The Heart rate [3, 7] was 512 ± 59 beats per min, the LV weight/tibial length [3, 7] was 6 ± 0.01 and the “RV +dp/dt” value [3, 7] was 2171 ± 283 mm Hg/sec. For the same substance, the RV end-diastolic pressure [3, 7] was 3 ± 2 mm Hg, the RV stroke volume [3, 7] was 8 ± 2 µL and the RV systolic pressure [3, 7] was 24 ± 3 mm Hg. For the same substance, the RV weight/tibial length [3, 7] was 1.5 ± 0.01 g/mm, the “RV −dp/dt” value [3, 7] was 1963 ± 257 mm Hg/sec and the Total body weight [3, 7] was 28 ± 1 g. For the same substance, the Survival ([3]; after 7 days of severe RVPO, compared to IgG treatment) was “improved survival”, the “RV MYH7 mRNA levels” value ([3]; after severe RVPO) was “reduced” and the “RV TRPC-6 mRNA levels” value ([3]; after severe RVPO) was “reduced”. For the same substance, the “RV mass (degree of hypertrophy)” value ([3]; after severe RVPO) was “attenuated”, the “RV α-SMA mRNA levels” value ([3]; after severe RVPO) was “reduced” and the “RV Type I collagen levels” value [3, 8] was “reduced”. For the same substance, the RV calcineurin levels [3, 8] was “reduced”, the RV fibrosis [3, 8] was “significantly reduced” and the “RV pERK-1/2 levels” value [3, 8] was “reduced”. For the same substance, the “RV pSmad-3 levels” value [3, 8] was “reduced”, the Cardiac output [3, 9] was 2.4 ± 0.2 mL/min and the Heart rate [3, 9] was 514 ± 52 beats per min. For the same substance, the LV weight/tibial length [3, 9] was 5 ± 0.02, the “RV +dp/dt” value [3, 9] was 4130 ± 563 mm Hg/sec and the RV end-diastolic pressure [3, 9] was 4 ± 2 mm Hg. For the same substance, the RV stroke volume [3, 9] was 5 ± 1 µL, the RV systolic pressure [3, 9] was 53 ± 9 mm Hg and the RV weight/tibial length [3, 9] was 1.9 ± 0.01*^,† g/mm. For the same substance, the “RV −dp/dt” value [3, 9] was 3287 ± 350 mm Hg/sec, the Total body weight [3, 9] was 24 ± 2 g and the “RV cardiomyocyte cross sectional area” value ([3]; severe RVPO, compared to IgG controls (p=0.09)) was “trend towards lower cardiomyocyte hypertrophy”. For the same substance, the “TGFβ1 induced calcineurin protein expression” value [4] was “not LVFB”, the “TGFβ1 induced protein levels of pERK-1/2” value [4] was “inhibited” and the “TGFβ1 induced protein levels of pSmad-3” value [4] was “inhibited”. For the same substance, the “TGFβ1 induced α-SMA protein expression” value [4] was “not LVFB” and the “TGFβ1 induced calcineurin protein expression” value ([4]; listed as TRC105) was “not LV fibroblasts”.
